± gives the standard deviation of the averaged measurements.
Assay: total protein half-life in vivo (active degradation + dilution); higher = more stable protein
[1] = E. coli NCM3722 delta-clpP delta-lon delta-hslV, growth: N-lim chemostat, doubling time 6 h
[2] = E. coli NCM3722 delta-clpP, growth: N-lim chemostat, doubling time 6 h
[3] = E. coli NCM3722 delta-hslV, growth: N-lim chemostat, doubling time 6 h
[4] = E. coli NCM3722 delta-lon, growth: N-lim chemostat, doubling time 6 h
[5] = E. coli NCM3722 delta-smpB, growth: N-lim chemostat, doubling time 6 h
[6] = wild type E. coli NCM3722, growth: C-lim chemostat, doubling time 3 h
[7] = wild type E. coli NCM3722, growth: C-lim chemostat, doubling time 6 h
[8] = wild type E. coli NCM3722, growth: C-lim chemostat, doubling time 12 h
[9] = wild type E. coli NCM3722, growth: N-lim chemostat, doubling time 6 h
[10] = wild type E. coli NCM3722, growth: N-lim chemostat, doubling time 12 h
[11] = wild type E. coli NCM3722, growth: P-lim chemostat, doubling time 6 h
[12] = wild type E. coli NCM3722, growth: P-lim chemostat, doubling time 12 h

Row | Sequence | total protein half-life in vivo [1] | total protein half-life in vivo [2] | total protein half-life in vivo [3] | total protein half-life in vivo [4] | total protein half-life in vivo [5] | total protein half-life in vivo [6] | total protein half-life in vivo [7] | total protein half-life in vivo [8] | total protein half-life in vivo [9] | total protein half-life in vivo [10] | total protein half-life in vivo [11] | total protein half-life in vivo [12]
1 | MTMTRLKISKTLLAVMLTSAVATGSAYAENNAQTTNESAGQKVDSSMNKVGNFMDDSAITAKVKAALVDHDNIKSTDISVKTDQKVVTLSGFVESQAQAEEAVKVAKGVEGVTSVSDKLHVRDAKEGSVKGYAGDTATTSEIKAKLLADDIVPSRHVKVETTDGVVQLSGTVDSQAQSDRAESIAKAVDGVKSVKNDLKTK [P0AFH8] | 3.62 ± 0.17 h | 4.7 ± 0.28 h | 5.73 ± 0.24 h | 5.7 ± 0.33 h | 5.25 ± 0.3 h | 2.96 ± 0.067 h | 5.39 ± 0.2 h | 8.26 ± 2.2 h | 5.5 ± 0.26 h | 11.3 ± 0.17 h | 4.9 ± 0.15 h | 9.28 ± 0.88 h
2 | MTNITLQKQHRTLWHFIPGLALSAVITGVALWGGSIPAVAGAGFSALTLAILLGMVLGNTIYPHIWKSCDGGVLFAKQYLLRLGIILYGFRLTFSQIADVGISGIIIDVLTLSSTFLLACFLGQKVFGLDKHTSWLIGAGSSICGAAAVLATEPVVKAEASKVTVAVATVVIFGTVAIFLYPAIYPLMSQWFSPETFGIYIGSTVHEVAQVVAAGHAISPDAENAAVISKMLRVMMLAPFLILLAARVKQLSGANSGEKSKITIPWFAILFIVVAIFNSFHLLPQSVVNMLVTLDTFLLAMAMAALGLTTHVSALKKAGAKPLLMALVLFAWLIVGGGAINYVIQSVIA | – | 2.86 h | – | – | – | – | – | – | – | – | – | –
3 | MTNLNYQQTHFVMSAPDIRHLPSDTGIEVAFAGRSNAGKSSALNTLTNQKSLARTSKTPGRTQLINLFEVADGKRLVDLPGYGYAEVPEEMKRKWQRALGEYLEKRQSLQGLVVLMDIRHPLKDLDQQMIEWAVDSNIAVLVLLTKADKLASGARKAQLNMVREAVLAFNGDVQVETFSSLKKQGVDKLRQKLDTWFSEMQPVEETQDGE [P0A6P7] | 5.33 ± 0.22 h | 6.45 ± 1.6 h | 5.05 ± 0.074 h | 5.83 ± 0.38 h | 5.19 ± 0.42 h | 2.924 ± 0.022 h | 5.58 ± 0.19 h | 11.2 ± 0.46 h | 5.08 ± 0.32 h | 9.45 ± 0.2 h | 5.59 ± 0.11 h | 11.4 ± 0.91 h
4 | MTNLPKFSTALLHPRYWLTWLGIGVLWLVVQLPYPVIYRLGCGLGKLALRFMKRRAKIVHRNLELCFPEMSEQERRKMVVKNFESVGMGLMETGMAWFWPDRRIARWTEVIGMEHIRDVQAQKRGILLVGIHFLTLELGARQFGMQEPGIGVYRPNDNPLIDWLQTWGRLRSNKSMLDRKDLKGMIKALKKGEVVWYAPDHDYGPRSSVFVPLFAVEQAATTTGTWMLARMSGACLVPFVPRRKPDGKGYQLIMLPPECSPPLDDAETTAAWMNKVVEKCIMMAPEQYMWLHRRFKTRPEGVPSRY [P0ACV0] | 6.85 h | 5.84 h | 6.63 h | – | 5.81 h | – | 7.93 h | – | – | – | – | –
5 | MTNNPLIPQSKLPQLGTTIFTQMSALAQQHQAINLSQGFPDFDGPRYLQERLAHHVAQGANQYAPMTGVQALREAIAQKTERLYGYQPDADSDITVTAGATEALYAAITALVRNGDEVICFDPSYDSYAPAIALSGGIVKRMALQPPHFRVDWQEFAALLSERTRLVILNTPHNPSATVWQQADFAALWQAIAGHEIFVISDEVYEHINFSQQGHASVLAHPQLRERAVAVSSFGKTYHMTGWKVGYCVAPAPISAEIRKVHQYLTFSVNTPAQLALADMLRAEPEHYLALPDFYRQKRDILVNALNESRLEILPCEGTYFLLVDYSAVSTLDDVEFCQWLTQEHGVAAIPLSVFCADPFPHKLIRLCFAKKESTLLAAAERLRQL | 2.63 ± 0.15 h | 1.93 ± 0.071 h | 1.69 ± 0.11 h | 2.09 h | 2.01 ± 0.052 h | 2.48 ± 0.11 h | 3.9 ± 0.38 h | 5.92 ± 0.72 h | 1.95 h | – | 5.33 ± 1.2 h | 8.16 ± 1 h
6 | MTNQPTEIAIVGGGMVGGALALGLAQHGFAVTVIEHAEPAPFVADSQPDVRISAISAASVSLLKGLGVWDAVQAMRCHPYRRLETWEWETAHVVFDAAELKLPLLGYMVENTVLQQALWQALEAHPKVTLRVPGSLIALHRHDDLQELELKGGEVIRAKLVIGADGANSQVRQMAGIGVHAWQYAQSCMLISVQCENDPGDSTWQQFTPDGPRAFLPLFDNWASLVWYDSPARIRQLQNMNMAQLQAEIAKHFPSRLGYVTPLAAGAFPLTRRHALQYVQPGLALVGDAAHTIHPLAGQGVNLGYRDVDALIDVLVNARSYGEAWASYPVLKRYQMRRMADNFIMQSGMDLFYAGFSNNLPPLRFMRNLGLMAAERAGVLKRQALKYALGL | 4.44 ± 0.19 h | 3.97 ± 0.055 h | 4.09 ± 0.076 h | 3.34 ± 0.071 h | 3.93 ± 0.044 h | 2.59 ± 0.043 h | 4.352 ± 0.0069 h | 7.53 ± 0.7 h | 3.808 ± 0.035 h | 7.16 ± 0.92 h | 4.49 ± 0.16 h | 7.66 ± 0.16 h
7 | MTNRLVLSGTVCRAPLRKVSPSGIPHCQFVLEHRSVQEEAGFHRQAWCQMPVIVSGHENQAITHSITVGSRITVQGFISCHKAKNGLSKMVLHAEQIELIDSGD | – | – | – | – | 4.72 h | 2.97 h | – | – | 5.76 h | – | – | 15.6 h
